According to article PMC3900104:

B1: Myc-tagged DISC1, in COS7 [human] / FLAG-tagged TRAK1 (trafficking-protein-Kinesin-binding-1), aa 2-953, in COS7 [human] (parent)
chain 1: MPGGGPQGAPAAAGGGGVSHRAGSRDCLPPAACFRRRRLARRPGYMRSSTGPGIGFLSPAVGTLFRFPGGVSGEESHHSESRARQCGLDSRGLLVRSPVSKSAAAPTVTSVRGTSAHFGIQLRGGTRLPDRLSWPCGPGSAGWQQEFAAMDSSETLDASWEAACSDGARRVRAAGSLPSAELSSNSCSPGCGPEVPPTPPGSHSAFTSSFSFIRLSLGSAGERGEAEGCPPSREAESHCQSPQEMGAKAASLDGPHEDPRCLSRPFSLLATRVSADLAQAARNSSRPERDMHSLPDMDPGSSSSLDPSLAGCGGDGSSGSGDAHSWDTLLRKWEPVLRDCLLRNRRQMEVISLRLKLQKLQEDAVENDDYDKAETLQQRLEDLEQEKISLHFQLPSRQPALSSFLGHLAAQVQAALRRGATQQASGDDTHTPLRMEPRLLEPTAQDSLHVSITRRDWLLQEKQQLQKEIEALQARMFVLEAKDQQLRREIEEQEQQLQWQGCDLTPLVGQLSLGQLQEVSKALQDTLASAGQIPFHAEPPETIRSLQERIKSLNLSLKEITTKVCMSEKFCSTLRKKVNDIETQLPALLEAKMHAISGNHFWTAKDLTEEIRSLTSEREGLEGLLSKLLVLSSRNVKKLGSVKEDYNRLRREVEHQETAYETSVKENTMKYMETLKNKLCSCKCPLLGKVWEADLEACRLLIQSLQLQEARGSLSVEDERQMDDLEGAAPPIPPRLHSEDKRKTPLKVLEEWKTHLIPSLHCAGGEQKEESYILSAELGEKCEDIGKKLLYLEDQLHTAIHSHDEDLIQSLRRELQMVKETLQAMILQLQPAKEAGEREAAASCMTAGVHEAQA
chain 2: ALVFQFGQPVRAQPLPGLCHGKLIRTNACDVCNSTDLPEVEIISLLEEQLPHYKLRADTIYGYDHDDWLHTPLISPDANIDLTTEQIEETLKYFLLCAERVGQMTKTYNDIDAVTRLLEEKERDLELAARIGQSLLKKNKTLTERNELLEEQVEHIREEVSQLRHELSMKDELLQFYTSAAEESEPESVCSTPLKRNESSSSVQNYFHLDSLQKKLKDLEEENVVLRSEASQLKTETITYEEKEQQLVNDCVKELRDANVQIASISEELAKKTEDAARQQEEITHLLSQIVDLQKKAKACAVENEELVQHLGAAKDAQRQLTAELRELEDKYAECMEMLHEAQEELKNLRNKTMPNTTSRRYHSLGLFPMDSLAAEIEGTMRKELQLEEAESPDITHQKRVFETVRNINQVVKQRSLTPSPMNIPGSNQSSAMNSLLSSCVSTPRSSFYGSDIGNVVLDNKTNSIILETEAADLGNDERSKKPGTPGTPGSHDLETALRRLSLRRENYLSERRFFEEEQERKLQELAEKGELRSGSLTPTESIMSLGTHSRFSEFTGFSGMSFSSRSYLPEKLQIVKPLEGSATLHHWQQLAQPHLGGILDPRPGVVTKGFRTLDVDLDEVYCLNDFEEDDTGDHISLPRLATSTPVQHPETSAHHPGKCMSQTNSTFTFTTCRILHPSDELTRVTPSLNSAPTPACGSTSHLKSTPVATPCTPRRLSLAESFTNTRESTTTMSTSLGLVWLLKERGISAAVYDPQSWDRAGRGSLLHSYTPKMAVIPSTPPNSPMQTPTSSPPSFEFKCTSPPYDNFLASKPASSILREVREKNVRSSESQTDVSVSNLNLVDKVRRFGVAKVVNSGRAHVPTLTEEQGPLLCGPPGPAPALVPRGLVPEGLPLRCPTVTSAIGGLQLNSGIRRNRSFPTMVGSSMQMKAPVTLTSGILMGAKLSKQTSLR

Variants of: B1
Assay: co-immunoprecipitation (IP with Myc antibody, WB anti-FLAG), quantified
Settings: with FLAG-tagged TRAK1 (trafficking-protein-Kinesin-binding-1), COS7 cells, n = 3 independent transfections, parent: 100, read off a plot
For chain 1 R35A R36A R37A R38A R41A R42A R47A, the percent of parent was 43 % of DISC1.
